# According to US20200231640A1 (ANTIBIOTIC ALTERNATIVES, published 2020):
# B1: S100A8 (other, human, UniProt P05109 1-93, looked up)
# chain: MLTELEKALNSIIDVYHKYSLIKGNFHAVYRDDLKKLLETECPQYIRKKGADVWFKELDINTDGAVNFQEFLILVIKMGVAAHKKSHEESHKE
# notes: Expressed in KB cells from transfected mRNA; also called MRP8; calgranulin A
# B2: S100A8/A9 protein complex (calprotectin; S100A8 complexed with S100A9) (other, human)
# chain 1: MLTELEKALNSIIDVYHKYSLIKGNFHAVYRDDLKKLLETECPQYIRKKGADVWFKELDINTDGAVNFQEFLILVIKMGVAAHKKSHEESHKE
# chain 2: MTCKMSQLERNIETIINTFHQYSVKLGHPDTLNQGEFKELVRKDLQNFLKKENKNEKVIEHIMEDLDTNADKQLSFEEFIMLMARLTWASHEKMHEGDEGPGHHHKPGLGEGTP
# notes: Cytosolic complex in lysates of stably transfected KB-S100A8/A9 cells (co-immunoprecipitation), or in mRNA-transfected KB cells (immunofluorescence); also called S100A8/S100A9 heterodimer; MRP8/14
# Columns and labels:
# S100A9 subunit = target: T1, S100A9 subunit (human, UniProt P06702 1-114); experiment: immunofluorescence of mRNA-transfected KB cells with the heterodimer-specific antibody 27E10
# T1 construct: Captured with anti-S100A9 from lysate of cells that also express S100A8, so it probably stood in the complex; also called MRP14; calgranulin B
# T1 sequence (looked up): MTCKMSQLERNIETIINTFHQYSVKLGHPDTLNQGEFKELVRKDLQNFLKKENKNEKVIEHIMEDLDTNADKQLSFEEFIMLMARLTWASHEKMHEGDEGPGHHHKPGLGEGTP
# Method: After CAMP, S100A8/S100A9 mRNA transfection for 16 hours, cells were fixed with 4% paraformaldehyde for 10 minutes, washed with PBS (pH 7.4), and then permeabilized with 0.25% Triton X-100 for 10 minutes. After blocking one hour with 1% BSA in PBS/0.1% Tween 20 and rinsing 3× with PBS, cells were incubated with mouse anti-calprotectin (mAb 27E10, sc-33714, Santa Cruz Biotechnolology, Inc., Santa Cruz, Calif.) or mouse anti-LL37 (sc-166770, Santa Cruz Biotechnolology, Inc., Santa Cruz, Calif.) for one hour, followed by Alexa Fluor 568-conjugated goat anti-mouse IgG or Alexa Fluor 488-conjugated goat anti-rabbit IgG (Life Technologies Corp., Carlsbad, Calif.) for one hour. For EGFP mRNA transfection, no antibody incubation was needed. Nuclei were stained with DAPI. Fluorescence images were captured using an epifluorescence microscope system. A8-IRES-A9 and A8-nIRES-A9 mRNA transfection for 40 hours were also performed.
# Chk1 = target: T2, Chk1 (human, UniProt O14757 1-476); experiment: co-immunoprecipitation from cell lysate
# T2 construct: also called checkpoint kinase Chk1; p-Chk1 (Ser345)
# T2 sequence (looked up): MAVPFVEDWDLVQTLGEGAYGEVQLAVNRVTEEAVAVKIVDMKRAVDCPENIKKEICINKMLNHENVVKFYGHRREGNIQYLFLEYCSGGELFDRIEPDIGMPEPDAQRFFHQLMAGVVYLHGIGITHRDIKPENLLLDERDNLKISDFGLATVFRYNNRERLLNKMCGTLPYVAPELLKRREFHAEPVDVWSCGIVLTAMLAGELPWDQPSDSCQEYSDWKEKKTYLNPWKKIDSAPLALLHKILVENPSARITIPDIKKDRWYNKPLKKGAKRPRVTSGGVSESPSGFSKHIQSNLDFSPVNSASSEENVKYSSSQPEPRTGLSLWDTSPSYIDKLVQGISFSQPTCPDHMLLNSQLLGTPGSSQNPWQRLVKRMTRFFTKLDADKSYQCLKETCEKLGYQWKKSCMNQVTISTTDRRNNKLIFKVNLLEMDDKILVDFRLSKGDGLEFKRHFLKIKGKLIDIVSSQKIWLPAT
Binder,binding result (S100A9 subunit),binding result (Chk1)
B1,binds,
B2,,no binding
